Results taken from patent US10196657B2, “Methods of producing 7-carbon chemicals via methyl-ester shielded carbon chain elongation” (INVISTA North America S.á r.l., priority 2012, dated 2019).

Assays:
Assay type in all cases: biochemical
[1] = Pimeloyl-[acp] methyl ester methylesterase activity assay, pimeloyl-CoA methyl ester to pimeloyl-CoA (LC-MS); conditions: 10 μM enzyme, 5 mM pimeloyl-CoA methyl ester, pH 7.0, 30° C., 1 h; FIG. 20
Procedure: A nucleotide sequence encoding a C-terminal His-tag was added to the gene from Escherichia coli encoding the pimeloyl-[acp] methylester methylesterase of SEQ ID NO: 17 (see FIG. 7H) such that a C-terminal HIS tagged pimeloyl-[acp] methyl ester methylesterase could be produced. The resulting modified gene was cloned into a pET28b+ expression vector under control of the T7 promoter and the expression vector was transformed into a BL21[DE3] E. coli host. The resulting recombinant E. coli strain was cultivated at 37° C. in a 500 mL shake flask culture containing 100 mL LB media and antibiotic selection pressure, with shaking at 230 rpm. Each culture was induced overnight at 18° C. using 0.3 mM IPTG.
The pellet from each induced shake flask culture was harvested via centrifugation. Each pellet was resuspended and lysed via sonication. The cell debris was separated from the supernatant via centrifugation. […]
Enzyme activity assays converting pimeloyl-CoA methyl ester to pimeloyl-CoA were performed in triplicate in a buffer composed of a final concentration of 25 mM Tris.HCl buffer (pH=7.0) and 5 [mM] pimeloyl-CoA methyl ester. […] The formation of pimeloyl-CoA was quantified via LC-MS.

[2] = Carboxylate reductase activity assay, pimelate to pimelate semialdehyde (NADPH consumption); conditions: purified enzyme enhanced by sfp gene product, 2 mM pimelate, room temperature, 20 min; against empty vector control; FIG. 10
Procedure: A sequence encoding a HIS-tag was added to the genes from Segniliparus rugosus and Segniliparus rotundus that encode the carboxylate reductases of SEQ ID NOs: 4 and 7, respectively (see FIGS. 7C and 7F), such that N-terminal HIS tagged carboxylate reductases could be produced. Each of the modified genes was cloned into a pET Duet expression vector along with a sfp gene encoding a HIS-tagged phosphopantetheine transferase from Bacillus subtilis, both under the T7 promoter. Each expression vector was transformed into a BL21[DE3] E. coli host and the resulting recombinant E. coli strains were cultivated at 37° C. in a 250 mL shake flask culture containing 50 mL LB media and antibiotic selection pressure, with shaking at 230 rpm. Each culture was induced overnight at 37° C. using an auto-induction media.
The pellet from each induced shake flask culture was harvested via centrifugation. Each pellet was resuspended and lysed via sonication, and the cell debris was separated from the supernatant via centrifugation. […]
Enzyme activity assays (i.e., from pimelate to pimelate semialdehyde) were performed in triplicate in a buffer composed of a final concentration of 50 mM HEPES buffer (pH=7.5), 2 mM pimelate, 10 mM MgCl2, 1 mM ATP and 1 mM NADPH. […] The consumption of NADPH was monitored by absorbance at 340 nm.

[3] = Carboxylate reductase activity assay, N7-acetyl-7-aminoheptanoate to N7-acetyl-7-aminoheptanal; conditions: purified enzyme enhanced by sfp gene product, 2 mM substrate, room temperature, 20 min; against empty vector control; FIG. 12
Procedure: The activity of each of the N-terminal His-tagged carboxylate reductases of SEQ ID NOs: 3, 6, and 7 (see Examples 4, and FIGS. 7B, 7E, and 7F) for converting N7-acetyl-7-aminoheptanoate to N7-acetyl-7-aminoheptanal was assayed in triplicate in a buffer composed of a final concentration of 50 mM HEPES buffer (pH=7.5), 2 mM N7-acetyl-7-aminoheptanoate, 10 mM MgCl2, 1 mM ATP, and 1 mM NADPH. The assays were initiated by adding purified carboxylate reductase and phosphopantetheine transferase or the empty vector control to the assay buffer containing the N7-acetyl-7-aminoheptanoate then incubated at room temperature for 20 min. The consumption of NADPH was monitored by absorbance at 340 nm.

[4] = Carboxylate reductase activity assay, pimelate semialdehyde to heptanedial; conditions: purified enzyme enhanced by sfp gene product, 2 mM pimelate semialdehyde, room temperature, 20 min; against empty vector control; FIG. 13
Procedure: The N-terminal His-tagged carboxylate reductase of SEQ ID NO 7 (see Example 4 and FIG. 7F) was assayed using pimelate semialdehyde as substrate. The enzyme activity assay was performed in triplicate in a buffer composed of a final concentration of 50 mM HEPES buffer (pH=7.5), 2 mM pimelate semialdehyde, 10 mM MgCl2, 1 mM ATP and 1 mM NADPH. The enzyme activity assay reaction was initiated by adding purified carboxylate reductase and phosphopantetheine transferase or the empty vector control to the assay buffer containing the pimelate semialdehyde and then incubated at room temperature for 20 min. The consumption of NADPH was monitored by absorbance at 340 nm.

Molecule	acceptance of pimeloyl-CoA methyl ester as substrate, forming pimeloyl-CoA (LC-MS) [1]	acceptance of pimelate as substrate (NADPH consumption, absorbance at 340 nm) [2]	acceptance of N7-acetyl-7-aminoheptanoate as substrate (NADPH consumption, absorbance at 340 nm) [3]	acceptance of pimelate semialdehyde as substrate, forming heptanedial (NADPH consumption, absorbance at 340 nm) [4]
SEQ ID NO. 17: Escherichia coli pimelyl-[acp] methyl ester esterase, GenBank Accession No. AAC76437.1 (protein, listed as Escherichia coli) MNNIWWQTKGQGNVHLVLLHGWGLNAEVWRCIDEELSSHFTLHLVDLPGFGRSRGFGALSLADMAEAVLQQAPDKAIWLGWSLGGLVASQIALTHPERVQALVTVASSPCFSARDEWPGIKPDVLAGFQQQLSDDFQRTVERFLALQTMGTETARQDARALKKTVLALPMPEVDVLNGGLEILKTVDLRQPLQNVSMPFLRLYGYLDGLVPRKVVPMLDKLWPHSESYIFAKAAHAPFISHPAEFCHLLVALKQRV	accepted pimeloyl-CoA methyl ester as substrate	–	–	–
SEQ ID NO 7: Segniliparus rotundus carboxylate reductase, Genbank Accession No. ADG98140.1 (protein, listed as Segniliparus rotundus) MTQSHTQGPQASAAHSRLARRAAELLATDPQAAATLPDPEVVRQATRPGLRLAERVDAILSGYADRPALGQRSFQTVKDPITGRSSVELLPTFDTITYRELRERATAIASDLAHHPQAPAKPGDFLASIGFISVDYVAIDIAGVFAGLTAVPLQTGATLATLTAITAETAPTLFAASIEHLPTAVDAVLATPSVRRLLVFDYRAGSDEDREAVEAAKRKIADAGSSVLVDVLDEVIARGKSAPKAPLPPATDAGDDSLSLLIYTSGSTGTPKGAMYPERNVAHFWGGVWAAAFDEDAAPPVPAINITFLPLSHVASRLSLMPTLARGGLMHFVAKSDLSTLFEDLKLARPTNLFLVPRVVEMLYQHYQSELDRRGVQDGTREAEAVKDDLRTGLLGGRILTAGFGSAPLSAELAGFIESLLQIHLVDGYGSTEAGPVWRDGYLVKPPVTDYKLIDVPELGYFSTDSPHPRGELAIKTQTILPGYYKRPETTAEVFDEDGFYLTGDVVAQIGPEQFAYVDRRKNVLKLSQGEFVTLAKLEAAYSSSPLVRQLFVYGSSERSYLLAVIVPTPDALKKFGVGEAAKAALGESLQKIARDEGLQSYEVPRDFIIETDPFTVENGLLSDARKSLRPKLKEHYGERLEAMYKELADGQANELRDIRRGVQQRPTLETVRRAAAAMLGASAAEIKPDAHFTDLGGDSLSALTFSNFLHDLFEVDVPVGVIVSAANTLGSVAEHIDAQLAGGRARPTFATVHGKGSTTIKASDLTLDKFIDEQTLEAAKHLPKPADPPRTVLLTGANGWLGRFLALEWLERLAPAGGKLITIVRGKDAAQAKARLDAAYESGDPKLAGHYQDLAATTLEVLAGDFSEPRLGLDEATWNRLADEVDFISHPGALVNHVLPYNQLFGPNVAGVAEIIKLAITTRIKPVTYLSTVAVAAGVEPSALDEDGDIRTVSAERSVDEGYANGYGNSKWGGEVLLREAHDRTGLPVRVFRSDMILAHQKYTGQVNATDQFTRLVQSLLATGLAPKSFYELDAQGNRQRAHYDGIPVDFTAESITTLGGDGLEGYRSYNVFNPHRDGVGLDEFVDWLIEAGHPITRIDDYDQWLSRFETSLRGLPESKRQASVLPLLHAFARPGPAVDGSPFRNTVFRTDVQKAKIGAEHDIPHLGKALVLKYADDIKQLGLL	–	accepted pimelate as substrate	accepted N7-acetyl-7-aminoheptanoate as substrate	accepted pimelate semialdehyde as substrate
